From patent publication US6482933 (Takeda / Millennium, dated 2002)

Molecular target: T1, CARD-4L epitope tagged with HA (pCI-CARD-4LcHA) (human, UniProt Q9Y239 1-953)
T1 construct: Expressed in 293T cells from pCI; in cell lysate
T1 sequence: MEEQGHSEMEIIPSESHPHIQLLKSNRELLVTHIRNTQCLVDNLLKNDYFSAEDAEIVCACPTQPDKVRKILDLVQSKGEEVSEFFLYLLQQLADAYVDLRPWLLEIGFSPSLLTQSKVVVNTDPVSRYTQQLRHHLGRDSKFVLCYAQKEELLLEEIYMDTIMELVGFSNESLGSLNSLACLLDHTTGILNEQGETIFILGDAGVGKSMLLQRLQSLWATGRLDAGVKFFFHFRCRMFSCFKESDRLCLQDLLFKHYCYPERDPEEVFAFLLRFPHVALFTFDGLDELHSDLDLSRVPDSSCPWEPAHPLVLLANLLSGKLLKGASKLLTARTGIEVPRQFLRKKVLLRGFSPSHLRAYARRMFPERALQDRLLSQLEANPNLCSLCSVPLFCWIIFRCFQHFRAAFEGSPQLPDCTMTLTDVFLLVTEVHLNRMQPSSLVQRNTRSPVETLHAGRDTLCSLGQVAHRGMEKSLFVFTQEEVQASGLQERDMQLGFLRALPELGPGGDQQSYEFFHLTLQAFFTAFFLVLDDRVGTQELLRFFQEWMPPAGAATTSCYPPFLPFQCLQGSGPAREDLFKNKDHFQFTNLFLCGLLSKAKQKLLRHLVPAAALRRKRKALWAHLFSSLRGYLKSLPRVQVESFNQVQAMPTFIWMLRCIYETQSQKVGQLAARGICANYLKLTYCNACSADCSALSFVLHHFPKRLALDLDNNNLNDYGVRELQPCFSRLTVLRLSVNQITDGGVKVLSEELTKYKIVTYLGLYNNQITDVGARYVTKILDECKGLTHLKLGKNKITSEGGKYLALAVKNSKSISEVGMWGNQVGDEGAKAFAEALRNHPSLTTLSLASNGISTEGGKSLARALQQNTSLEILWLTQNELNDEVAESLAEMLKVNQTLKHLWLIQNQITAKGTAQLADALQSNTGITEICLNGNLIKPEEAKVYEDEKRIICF
Assay: coimmunoprecipitation from cotransfected 293T cells (anti-MYC IP, anti-HA Western blot)
Experimental: Cells from each transfected line were lysed and an immunoprecipitation procedure was carried out on each lysate with an anti-MYC epitope tag antibody to precipitate the CARD-4LcHA expressed by each cell line and any physically associated proteins.

binding result: no binding
B1: CARD-3 lacking the CARD domain (SEQ ID NO:6) epitope tagged with MYC (pCI-CARD3noCARDnMYC) (other, not shown: small tags and cut ends)
chain: MNGEAICSALPTIPYHKLADLRYLSRGASGTVSSARHADWRVQVAVKHLHIHTPLLDSERKDVLREAEILHKARFSYILPILGICNEPEFLGIVTEYMPNGSLNELLHRKTEYPDVAWPLRFRILHEIALGVNYLHNMTPPLLHHDLKTQNILLDNEFHVKIADFGLSKWRMMSLSQSRSSKSAPEGGTIIYMPPENYEPGQKSRASIKHDIYSYAVITWEVLSRKQPFEDVTNPLQIMYSVSQGHRPVINEESLPYDIPHRARMISLIESGWAQNPDERPSFLKCLIELEPVLRTFEEITFLEAVIQLKKTKLQSVSSAIHLCDKKKMELSLNIPVNHGPQEESCGSSQLHENSGSPETSRSLPAPQDNDFLSRKAQDCYFMKLHHCPGNHSWDSTISGSQRAAFCDHKTIPCSSAIINPLSTAGNSERL
notes: also called CARD-3 lacking its CARD domain
